Data: patent US20150132310A1
pKd: −log10 of the molar value.

How the values were obtained:
[1] = biological target: human recombinant CD11b I domain (N-terminal 6x-His, C-terminal 6x-glycine linker and 3x-Flag) (human) (UniProt P11215); assay: SPR (Biacore T100), human I domain immobilised on CM5 chip, LukAB as analyte, multi cycle kinetics
[2] = biological target: Beta-adrenergic receptor kinase 1 (human) (UniProt P25098); assay: His-LukAB pull-down from solubilised primary human PMNs on nickel resin, mass spectrometry
Alpha-enolase (human) = Alpha-enolase (human) (UniProt P06733); assay: as above
[3] = biological target: Endoplasmic reticulum resident protein ERp44 (human) (UniProt Q9BS26); assay: as above
[4] = biological target: Bactericidal permeability-increasing protein (human) (UniProt P17213); assay: as above
[5] = biological target: Heat shock 70kDa protein 1A (human) (UniProt A8K5I0); assay: as above
CD63 antigen (human) = CD63 antigen (human) (UniProt P08962); assay: as above
cDNA FLJ76817 (human) = assay: as above
Actin (human) = Actin (human) (UniProt P63261); assay: as above
cDNA FLJ55493 (human) = cDNA FLJ55493 (human) (UniProt B4DMF5); assay: as above
[6] = biological target: Adipocyte plasma membrane-associated protein (human) (UniProt Q9HDC9); assay: as above
[7] = biological target: Mitogen-activated protein kinase 1 (human) (UniProt P28482); assay: as above
UniProt P28482, sequence (P28482 2-360 limits assumed): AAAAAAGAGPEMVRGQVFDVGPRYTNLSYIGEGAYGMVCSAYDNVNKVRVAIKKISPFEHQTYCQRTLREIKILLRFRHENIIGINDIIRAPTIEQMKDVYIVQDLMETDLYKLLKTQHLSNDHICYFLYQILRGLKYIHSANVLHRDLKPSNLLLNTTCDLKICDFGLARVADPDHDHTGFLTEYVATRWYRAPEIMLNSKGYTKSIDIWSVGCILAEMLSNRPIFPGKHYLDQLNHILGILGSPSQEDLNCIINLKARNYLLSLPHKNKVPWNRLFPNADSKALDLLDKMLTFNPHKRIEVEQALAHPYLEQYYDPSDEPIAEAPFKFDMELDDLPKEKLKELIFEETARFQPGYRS

[8] = biological target: Hemoglobin subunit alpha (human) (UniProt P69905); assay: as above
UniProt P69905, sequence (P69905 2-142 limits assumed): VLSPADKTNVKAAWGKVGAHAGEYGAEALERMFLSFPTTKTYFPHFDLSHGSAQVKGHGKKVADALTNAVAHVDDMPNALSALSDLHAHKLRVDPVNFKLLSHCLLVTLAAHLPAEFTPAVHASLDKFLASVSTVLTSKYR

[9] = biological target: Peptidoglycan recognition protein (human) (UniProt O75594); assay: as above
cDNA FLJ55635 (human) = assay: as above
SFPQ protein (human) = assay: as above
SFPQ protein (human), sequence (P23246 whole entry): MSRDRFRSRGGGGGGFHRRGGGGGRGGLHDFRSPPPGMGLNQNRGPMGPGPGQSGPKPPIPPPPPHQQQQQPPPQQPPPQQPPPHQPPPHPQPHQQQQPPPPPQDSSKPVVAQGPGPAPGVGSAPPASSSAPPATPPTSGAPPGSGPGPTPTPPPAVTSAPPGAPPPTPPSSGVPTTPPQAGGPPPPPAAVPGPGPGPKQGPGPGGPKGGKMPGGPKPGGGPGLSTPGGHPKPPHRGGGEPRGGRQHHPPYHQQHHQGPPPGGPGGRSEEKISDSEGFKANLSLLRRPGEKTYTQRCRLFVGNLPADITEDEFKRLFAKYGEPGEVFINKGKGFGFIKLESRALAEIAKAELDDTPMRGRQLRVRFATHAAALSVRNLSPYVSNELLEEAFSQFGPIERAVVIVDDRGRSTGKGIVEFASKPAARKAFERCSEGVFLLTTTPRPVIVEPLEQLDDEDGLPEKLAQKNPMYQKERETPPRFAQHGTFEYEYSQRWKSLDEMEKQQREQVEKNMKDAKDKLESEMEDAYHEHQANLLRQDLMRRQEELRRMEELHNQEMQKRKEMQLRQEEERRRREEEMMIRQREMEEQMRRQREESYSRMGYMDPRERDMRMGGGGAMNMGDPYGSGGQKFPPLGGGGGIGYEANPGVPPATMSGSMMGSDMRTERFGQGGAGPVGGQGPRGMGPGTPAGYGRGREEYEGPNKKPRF

Alpha-actinin-1 (human) = Alpha-actinin-1 (human) (UniProt P12814); assay: as above
[10] = biological target: Guanine nucleotide-binding protein G(i) (human) (UniProt P04899); assay: as above
UniProt P04899, sequence (P04899 2-355 limits assumed): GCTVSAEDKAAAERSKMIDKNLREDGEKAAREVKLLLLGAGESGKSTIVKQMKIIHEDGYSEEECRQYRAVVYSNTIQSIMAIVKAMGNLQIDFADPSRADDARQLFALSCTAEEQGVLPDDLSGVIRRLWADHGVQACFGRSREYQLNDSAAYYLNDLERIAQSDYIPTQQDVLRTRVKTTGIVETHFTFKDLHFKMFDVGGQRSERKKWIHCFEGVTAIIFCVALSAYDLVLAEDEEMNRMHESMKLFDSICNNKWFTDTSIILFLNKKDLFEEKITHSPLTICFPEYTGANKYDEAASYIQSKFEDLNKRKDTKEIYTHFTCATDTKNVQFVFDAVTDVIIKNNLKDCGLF

Myeloperoxidase (human) = Myeloperoxidase (human) (UniProt P05164); assay: as above
[11] = biological target: Pyruvate kinase isozymes M1/M2 (human) (UniProt P14618); assay: as above
UniProt P14618, sequence (P14618 2-531 limits assumed): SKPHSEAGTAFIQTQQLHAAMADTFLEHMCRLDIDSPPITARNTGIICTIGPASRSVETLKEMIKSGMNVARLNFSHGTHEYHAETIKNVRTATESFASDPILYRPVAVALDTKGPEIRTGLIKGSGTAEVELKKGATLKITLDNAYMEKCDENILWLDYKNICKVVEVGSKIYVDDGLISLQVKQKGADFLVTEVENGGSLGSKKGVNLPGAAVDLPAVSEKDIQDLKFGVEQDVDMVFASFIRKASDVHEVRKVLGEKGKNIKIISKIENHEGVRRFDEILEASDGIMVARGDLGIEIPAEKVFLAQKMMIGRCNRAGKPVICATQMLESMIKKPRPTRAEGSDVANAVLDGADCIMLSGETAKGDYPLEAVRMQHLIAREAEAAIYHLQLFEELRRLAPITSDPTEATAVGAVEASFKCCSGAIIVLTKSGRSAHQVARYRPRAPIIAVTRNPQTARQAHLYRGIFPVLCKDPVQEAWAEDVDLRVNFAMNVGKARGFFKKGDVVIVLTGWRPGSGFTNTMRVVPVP

Cntm_P13645 = Cntm_P13645 (UniProt P13645); assay: as above
Coronin-1A (human) = Coronin-1A (human) (UniProt P31146); assay: as above
Protein S100-A8 (human) = Protein S100-A8 (human) (UniProt P05109); assay: as above
UniProt P05109, sequence (P05109 whole entry): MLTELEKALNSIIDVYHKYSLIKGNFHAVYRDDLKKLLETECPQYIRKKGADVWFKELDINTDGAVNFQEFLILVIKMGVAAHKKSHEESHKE

[12] = biological target: Adenylyl cyclase-associated protein (human) (UniProt B2RDY9); assay: as above
[13] = biological target: ATP synthase subunit beta (human) (UniProt P06576); assay: as above
UniProt P06576, sequence (P06576 48-529): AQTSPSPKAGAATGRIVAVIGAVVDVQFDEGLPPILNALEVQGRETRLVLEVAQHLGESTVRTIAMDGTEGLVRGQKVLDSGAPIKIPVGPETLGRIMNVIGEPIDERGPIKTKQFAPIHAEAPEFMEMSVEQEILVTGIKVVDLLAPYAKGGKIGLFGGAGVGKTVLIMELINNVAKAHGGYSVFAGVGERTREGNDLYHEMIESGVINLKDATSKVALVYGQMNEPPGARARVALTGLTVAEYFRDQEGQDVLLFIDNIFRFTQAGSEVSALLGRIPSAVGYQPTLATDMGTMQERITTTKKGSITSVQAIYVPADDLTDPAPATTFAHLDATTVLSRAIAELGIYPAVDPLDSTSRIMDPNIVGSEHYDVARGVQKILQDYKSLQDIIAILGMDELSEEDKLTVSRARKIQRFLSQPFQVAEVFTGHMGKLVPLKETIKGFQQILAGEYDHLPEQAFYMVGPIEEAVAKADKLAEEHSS

cDNA, FLJ92148 (human) = cDNA, FLJ92148 (human) (UniProt B2R4M6); assay: as above
[14] = biological target: E3 ubiquitin-protein ligase CBL (human) (UniProt P22681); assay: as above
cDNA FLJ75120 (human) = cDNA FLJ75120 (human) (UniProt Q99536); assay: as above
Malic enzyme (human) = Malic enzyme (human) (UniProt P23368); assay: as above
UniProt P23368, sequence (P23368 19-584 limits assumed): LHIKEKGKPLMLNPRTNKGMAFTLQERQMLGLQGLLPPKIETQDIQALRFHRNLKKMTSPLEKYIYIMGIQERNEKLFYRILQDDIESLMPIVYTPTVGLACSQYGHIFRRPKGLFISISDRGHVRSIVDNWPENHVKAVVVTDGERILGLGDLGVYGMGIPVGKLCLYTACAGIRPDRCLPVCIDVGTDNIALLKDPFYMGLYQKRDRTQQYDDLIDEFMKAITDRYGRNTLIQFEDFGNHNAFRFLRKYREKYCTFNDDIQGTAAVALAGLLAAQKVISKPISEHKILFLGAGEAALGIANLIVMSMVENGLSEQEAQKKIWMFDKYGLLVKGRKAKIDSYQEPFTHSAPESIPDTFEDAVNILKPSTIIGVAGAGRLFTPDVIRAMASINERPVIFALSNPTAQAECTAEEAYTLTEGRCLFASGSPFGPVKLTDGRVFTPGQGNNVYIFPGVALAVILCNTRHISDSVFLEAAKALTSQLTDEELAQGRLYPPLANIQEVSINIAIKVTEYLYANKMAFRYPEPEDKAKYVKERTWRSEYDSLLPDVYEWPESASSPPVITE

[15] = biological target: 6-phosphogluconate dehydrogenase (human) (UniProt P52209); assay: as above
[16] = biological target: human CD18 (Integrin beta 2) (human); assay: as above
Myosin-9 (human) = Myosin-9 (human) (UniProt P35579); assay: as above
[17] = biological target: Hemoglobin subunit beta (human) (UniProt P68871); assay: as above
[18] = biological target: Glucose-6-phosphate isomerase (human) (UniProt P06744); assay: as above
cDNA FLJ78440 (human) = cDNA FLJ78440 (human) (UniProt A8K494); assay: as above
[19] = biological target: Glyceraldehyde-3-phosphate dehydrogenase (human) (UniProt P04406); assay: as above
cDNA FLJ53963 (human) = assay: as above
cDNA FLJ53963 (human), sequence (P30740 whole entry): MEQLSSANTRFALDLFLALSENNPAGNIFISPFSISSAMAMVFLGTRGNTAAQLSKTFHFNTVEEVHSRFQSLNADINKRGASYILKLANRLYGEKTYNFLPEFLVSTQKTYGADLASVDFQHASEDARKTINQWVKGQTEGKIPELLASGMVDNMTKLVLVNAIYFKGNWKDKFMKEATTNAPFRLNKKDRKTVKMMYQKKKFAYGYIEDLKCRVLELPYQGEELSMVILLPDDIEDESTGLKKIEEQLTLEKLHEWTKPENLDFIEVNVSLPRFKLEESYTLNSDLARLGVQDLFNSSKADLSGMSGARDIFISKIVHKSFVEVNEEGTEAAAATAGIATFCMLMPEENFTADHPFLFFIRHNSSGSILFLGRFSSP

Serum albumin (human) = Serum albumin (human) (UniProt P02768); assay: as above
Plastin-2 (human) = Plastin-2 (human) (UniProt P13796); assay: as above
[20] = biological target: human CD11b (Integrin alpha-M), full length (human) (UniProt P11215); assay: as above
[21] = biological target: Protein tyrosine phosphatase (human) (UniProt P08575); assay: as above
Transketolase (human) = Transketolase (human) (UniProt P29401); assay: as above
UniProt P29401, sequence (P29401 whole entry): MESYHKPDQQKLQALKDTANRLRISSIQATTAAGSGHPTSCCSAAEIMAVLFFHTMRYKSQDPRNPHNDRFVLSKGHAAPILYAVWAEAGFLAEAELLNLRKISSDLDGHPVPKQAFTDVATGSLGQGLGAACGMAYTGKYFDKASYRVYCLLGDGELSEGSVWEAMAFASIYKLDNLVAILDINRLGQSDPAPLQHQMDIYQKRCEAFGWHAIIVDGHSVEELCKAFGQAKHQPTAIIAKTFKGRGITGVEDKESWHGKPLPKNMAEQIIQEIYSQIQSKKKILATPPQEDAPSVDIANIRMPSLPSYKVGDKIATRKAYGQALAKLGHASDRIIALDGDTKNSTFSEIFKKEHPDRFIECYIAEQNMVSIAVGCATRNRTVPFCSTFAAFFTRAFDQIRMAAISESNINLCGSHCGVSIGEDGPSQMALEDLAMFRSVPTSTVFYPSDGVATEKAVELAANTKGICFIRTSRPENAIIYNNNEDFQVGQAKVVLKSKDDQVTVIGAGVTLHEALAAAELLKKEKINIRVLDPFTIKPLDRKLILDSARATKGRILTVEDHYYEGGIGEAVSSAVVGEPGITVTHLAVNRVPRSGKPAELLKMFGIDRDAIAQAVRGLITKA

[22] = biological target: Putative uncharacterized protein LCN2 (human) (UniProt P80188); assay: as above
UniProt P80188, sequence (P80188 21-198 limits assumed): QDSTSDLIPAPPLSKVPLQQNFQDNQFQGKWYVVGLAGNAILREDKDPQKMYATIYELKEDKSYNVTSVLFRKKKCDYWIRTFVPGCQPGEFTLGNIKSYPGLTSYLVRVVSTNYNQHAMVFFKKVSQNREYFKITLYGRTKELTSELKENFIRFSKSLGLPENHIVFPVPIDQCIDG

Catalase (human) = Catalase (human) (UniProt P04040); assay: as above
UniProt P04040, sequence (P04040 2-527 limits assumed): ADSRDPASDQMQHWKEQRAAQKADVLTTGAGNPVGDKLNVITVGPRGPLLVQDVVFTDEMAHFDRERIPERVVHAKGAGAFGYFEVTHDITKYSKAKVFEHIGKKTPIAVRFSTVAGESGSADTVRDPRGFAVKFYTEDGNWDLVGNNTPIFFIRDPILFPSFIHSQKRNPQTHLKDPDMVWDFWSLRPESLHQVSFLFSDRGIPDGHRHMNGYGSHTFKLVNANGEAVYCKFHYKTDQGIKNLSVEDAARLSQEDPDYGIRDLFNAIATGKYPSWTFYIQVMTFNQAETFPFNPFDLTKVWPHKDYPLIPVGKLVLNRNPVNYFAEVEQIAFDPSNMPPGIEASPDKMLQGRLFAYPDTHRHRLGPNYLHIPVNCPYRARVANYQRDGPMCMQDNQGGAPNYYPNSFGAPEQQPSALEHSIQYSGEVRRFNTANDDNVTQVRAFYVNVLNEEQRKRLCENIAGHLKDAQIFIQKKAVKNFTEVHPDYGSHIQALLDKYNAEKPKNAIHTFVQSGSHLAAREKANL

[23] = biological target: human recombinant CD11b I domain (N-terminal 6x-His, C-terminal 6x-glycine linker and 3x-Flag) (human) (UniProt P11215); assay: SPR
[24] = biological target: human CD11b (Integrin alpha-M), full length (human) (UniProt P11215); assay: cell-based or functional assay
[25] = biological target: human recombinant Mac-1 (CD11b/CD18, integrin alphaM/beta2), R&D Systems (human) (UniProt P05107); assay: SPR (Biacore T100), Mac-1 immobilised on CM5 chip, LukAB as analyte, multi cycle kinetics

Q: How did the pKd [1] turn out when “His-tagged LukAB (leukotoxin AB, purified recombinant from S. aureus Newman)” was run?
A: 8.72

Q: And the # of peptides [2]?
A: 3 peptides

Q: What about the # of peptides (Alpha-enolase (human)) of the same substance?
A: 3 peptides

Q: What about the # of peptides [3] of the same substance?
A: 4 peptides

Q: What about the # of peptides [4] of the same substance?
A: 6 peptides

Q: What about the # of peptides [5] of the same substance?
A: 5 peptides

Q: What about the # of peptides (CD63 antigen (human)) of the same substance?
A: 3 peptides

Q: And the # of peptides (cDNA FLJ76817 (human))?
A: 3 peptides

Q: What about the # of peptides (Actin (human)) of the same substance?
A: 7 peptides

Q: What about the # of peptides (cDNA FLJ55493 (human)) of the same substance?
A: 5 peptides

Q: And the # of peptides [6]?
A: 5 peptides

Q: What about the # of peptides [7] of the same substance?
A: 5 peptides

Q: And the # of peptides [8]?
A: 4 peptides

Q: What about the # of peptides [9] of the same substance?
A: 4 peptides

Q: What about the # of peptides (cDNA FLJ55635 (human)) of the same substance?
A: 7 peptides

Q: What about the # of peptides (SFPQ protein (human)) of the same substance?
A: 4 peptides

Q: What about the # of peptides (Alpha-actinin-1 (human)) of the same substance?
A: 3 peptides

Q: And the # of peptides [10]?
A: 3 peptides

Q: What about the # of peptides (Myeloperoxidase (human)) of the same substance?
A: 7 peptides

Q: What about the # of peptides [11] of the same substance?
A: 9 peptides

Q: What about the # of peptides (Cntm_P13645) of the same substance?
A: 10 peptides

Q: What about the # of peptides (Coronin-1A (human)) of the same substance?
A: 6 peptides

Q: What about the # of peptides (Protein S100-A8 (human)) of the same substance?
A: 5 peptides

Q: And the # of peptides [12]?
A: 4 peptides

Q: What about the # of peptides [13] of the same substance?
A: 5 peptides

Q: And the # of peptides (cDNA, FLJ92148 (human))?
A: 4 peptides

Q: And the # of peptides [14]?
A: 3 peptides

Q: What about the # of peptides (cDNA FLJ75120 (human)) of the same substance?
A: 5 peptides

Q: And the # of peptides (Malic enzyme (human))?
A: 5 peptides

Q: And the # of peptides [15]?
A: 3 peptides

Q: What about the # of peptides [16] of the same substance?
A: 12 peptides

Q: And the # of peptides (Myosin-9 (human))?
A: 3 peptides

Q: What about the # of peptides [17] of the same substance?
A: 5 peptides

Q: And the # of peptides [18]?
A: 3 peptides

Q: What about the # of peptides (cDNA FLJ78440 (human)) of the same substance?
A: 8 peptides

Q: What about the # of peptides [19] of the same substance?
A: 6 peptides

Q: What about the # of peptides (cDNA FLJ53963 (human)) of the same substance?
A: 3 peptides

Q: And the # of peptides (Serum albumin (human))?
A: 13 peptides

Q: And the # of peptides (Plastin-2 (human))?
A: 8 peptides

Q: What about the # of peptides [20] of the same substance?
A: 17 peptides

Q: What about the # of peptides [21] of the same substance?
A: 3 peptides

Q: What about the # of peptides (Transketolase (human)) of the same substance?
A: 4 peptides

Q: What about the # of peptides [22] of the same substance?
A: 5 peptides

Q: And the # of peptides (Catalase (human))?
A: 3 peptides

Q: What about the difference in Kd against the LukAB-murine CD11b I-domain interaction [23] of the same substance?
A: 8 to 9 logs

Q: And the percent depletion of CD11b+ HEK293T cells (CD11b transfected), 40 µg/ml LukAB, 2 hours, flow cytometry [24]?
A: 80 to 90%

Q: And the pKd [25]?
A: 7.42
